# Data reported in patent US20200377551A1 (WAKE FOREST UNIVERSITY HEALTH SCIENCES, published 2020).
# T1: Tom20 (UniProt Q15388 1-145)
# T1 construct: Endogenous mitochondrial protein used as a specificity control in the MAVS co-IP
# T1 sequence (looked up): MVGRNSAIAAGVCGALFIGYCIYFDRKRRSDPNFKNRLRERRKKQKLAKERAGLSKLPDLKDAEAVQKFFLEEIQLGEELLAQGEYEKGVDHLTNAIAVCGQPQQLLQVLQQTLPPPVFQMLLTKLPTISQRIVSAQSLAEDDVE
# B1: mitochondrial antiviral-signaling protein (MAVS) (other)
# chain: MPFAEDKTYKYICRNFSNFCNVDVVEILPYLPCLTARDQDRLRATCTLSGNRDTLWHLFNTLQRRPGWVEYFIAALRGCELVDLADEVASVYESYQPRTSDRPPDPLEPPSLPAERPGPPTPAAAHSIPYNSCREKEPSYPMPVQETQAPESPGENSEQALQTLSPRAIPRNPDGGPLESSSDLAALSPLTSSGHQEKDTELGSTHTAGATSSLTPSRGPVSPSVSFQPLARSTPRASRLPGPTGSVVSTGTSFSSSSPGLASAGAAEGKQGAESDQAEPIICSSGAEAPANSLPSKVPTTLMPVNTVALKVPANPASVSTVPSKLPTSSKPPGAVPSNALTNPAPSKLPINSTRAGMVPSKVPTSMVLTKVSASTVPTDGSSRNEETPAAPTPAGATGGSSAWLDSSFENRGLGSELSKPGVLASQVDSPFSGCFEDLAISASTSLGMGPCHGPEENEYKSEGTFGIHVAENPSIQLLEGNPGPPADPDGGPRPQADRKFQEREVPCHRPSPGALWLQVAVTGVLVVTLLVVLYRRRLH
# notes: Endogenous full-length MAVS in HEK293 lysates or on isolated mitochondria; also called MAVS protein
# Target: T1, Tom20
# Assay: co-immunoprecipitation with MAVS antibody from HEK293 lysates, immunoblot (FIG. 2E)
binder,measurement,value
B1,binding result,no binding
